Measurements published in the supplement of paper PMC6757056.
± gives the standard deviation of the averaged measurements.

B1: library; a variant is named by its letters at N, in order (parent)
chain: GCUGUCACCGGAAUACCAGCAUCGUCUUGAUGCCCUUGGAAGUCCGGUCUGAUGAGUCCNNNNNGGACGAAACAGC

Assays:
theophylline [1] = variants of: B1; assay: FACS-Seq fitted mean relative fluorescence mCherry/BFP without ligand (log10 relative fluorescence); higher = higher reporter protein expression; settings: HEK293T, ligand present: no
Summary of the method: (§1)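 Fluorescence figures are normalized fitted normal means of sequenced bin counts. Enriched, lentivirally transduced HEK293T libraries with a ribozyme-switch mCherry reporter and EF1α-BFP were held 48 h with or without ligand, then sorted into 6 mCherry/BFP bins. PCR-amplified, barcoded genomic DNA from each bin was sequenced on MiSeq. Means of log10(mCherry/BFP) were scaled to five spiked-in control ribozymes.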

theophylline [2] = variants of: B1; assay: normalized RNA/DNA level with ligand (relative to sTRSVctl = 100) (log10 (% of sTRSVctl)); higher = less ribozyme self-cleavage, higher mRNA level; settings: ligand concentration (+) RNA-Seq: 5 mM, HEK293T, reporter: mCherry (pCS4076), ligand present: yes
Summary of the method: (§2)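 Ribozyme switch library plasmids with mCherry reporters (eGFP in certain ligand experiments) went into HEK293T cells at 4 µg per 6-well well. Where ligand was used, it was applied 1 h before transfection, and total RNA was extracted with EDTA 72 h later for reverse transcription, amplification, barcoding and sequencing. RNA level is the RNA-to-DNA read ratio normalized to a spiked-in non-cleaving sequence or to the leading sequences, then scaled and log-transformed. Scaling was ×100 with log10, the leading set comprised 25 sequences, and the cutoff was ≥100 DNA reads.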

theophylline [3] = variants of: B1; assay: normalized RNA/DNA level without ligand (relative to sTRSVctl = 100) (log10 (% of sTRSVctl)); higher = less ribozyme self-cleavage, higher mRNA level; settings: HEK293T, reporter: mCherry (pCS4076), ligand present: no
Summary of the method: as §2

theophylline [4] = variants of: B1; assay: FACS-Seq fitted mean relative fluorescence mCherry/BFP with ligand (log10 relative fluorescence); ligand concentration (+) FACS-Seq: 1 mM; higher = higher reporter protein expression; settings: HEK293T, ligand present: yes
Summary of the method: as §1

Row | Variant | FACS-Seq fitted mean (log10) (theophylline [1]) | normalized RNA/DNA level with ligand (log10) (theophylline [2]) | normalized RNA/DNA level without ligand (log10) (theophylline [3]) | FACS-Seq fitted mean (log10) (theophylline [4])
1 | GCUGUCACCGGAAUACCAGCAUCGUCUUGAUGCCCUUGGAAGUCCGGUCUGAUGAGUCCGCAGUGGACGAAACAGC | -0.266 ± 0.054 | 1.97 ± 0.12 | 1.774 ± 0.0085 | -0.0491 ± 0.075
2 | GCUGUCACCGGAAUACCAGCAUCGUCUUGAUGCCCUUGGAAGUCCGGUCUGAUGAGUCCACAUCGGACGAAACAGC | 0.595 ± 0.053 | 2 ± 0.098 | 1.94 ± 0.03 | 0.599 ± 0.055
3 | GCUGUCACCGGAAUACCAGCAUCGUCUUGAUGCCCUUGGAAGUCCGGUCUGAUGAGUCCCCCUUGGACGAAACAGC | 1.13 ± 0.16 | 1.99 ± 0.035 | 1.89 ± 0.049 | 1.07 ± 0.036
4 | GCUGUCACCGGAAUACCAGCAUCGUCUUGAUGCCCUUGGAAGUCCGGUCUGAUGAGUCCAUGUGGGACGAAACAGC | 0.254 ± 0.065 | 1.96 ± 0.097 | 1.87 ± 0.029 | 0.295 ± 0.11
5 | GCUGUCACCGGAAUACCAGCAUCGUCUUGAUGCCCUUGGAAGUCCGGUCUGAUGAGUCCCUGUUGGACGAAACAGC | -0.291 ± 0.011 | 1.93 ± 0.061 | 1.81 ± 0.07 | -0.12 ± 0.062
6 | GCUGUCACCGGAAUACCAGCAUCGUCUUGAUGCCCUUGGAAGUCCGGUCUGAUGAGUCCUGCGCGGACGAAACAGC | 0.574 ± 0.085 | 2.04 ± 0.035 | 1.96 ± 0.15 | 0.522 ± 0.1
7 | GCUGUCACCGGAAUACCAGCAUCGUCUUGAUGCCCUUGGAAGUCCGGUCUGAUGAGUCCGAGAAGGACGAAACAGC | 0.48 ± 0.017 | 1.91 ± 0.15 | 1.41 ± 0.11 | 0.7667 ± 0.00081
8 | GCUGUCACCGGAAUACCAGCAUCGUCUUGAUGCCCUUGGAAGUCCGGUCUGAUGAGUCCACCUGGGACGAAACAGC | 1.02 ± 0.063 | 2.01 ± 0.025 | 1.89 ± 0.043 | 0.898 ± 0.044
9 | GCUGUCACCGGAAUACCAGCAUCGUCUUGAUGCCCUUGGAAGUCCGGUCUGAUGAGUCCACUAAGGACGAAACAGC | 0.266 ± 0.016 | 2.002 ± 0.01 | 1.65 ± 0.2 | 0.391 ± 0.0057
10 | GCUGUCACCGGAAUACCAGCAUCGUCUUGAUGCCCUUGGAAGUCCGGUCUGAUGAGUCCCGGUCGGACGAAACAGC | 1.07 ± 0.037 | 1.98 ± 0.051 | 1.82 ± 0.076 | 1.13 ± 0.05
11 | GCUGUCACCGGAAUACCAGCAUCGUCUUGAUGCCCUUGGAAGUCCGGUCUGAUGAGUCCCCGAUGGACGAAACAGC | 0.974 ± 0.065 | 2 ± 0.047 | 1.64 ± 0.11 | 1.06 ± 0.11
12 | GCUGUCACCGGAAUACCAGCAUCGUCUUGAUGCCCUUGGAAGUCCGGUCUGAUGAGUCCUAAUUGGACGAAACAGC | 0.64 ± 0.039 | 2 ± 0.023 | 1.84 ± 0.062 | 0.613 ± 0.056
13 | GCUGUCACCGGAAUACCAGCAUCGUCUUGAUGCCCUUGGAAGUCCGGUCUGAUGAGUCCCUCCUGGACGAAACAGC | 0.814 ± 0.015 | 2.005 ± 0.011 | 1.88 ± 0.098 | 0.682 ± 0.033
14 | GCUGUCACCGGAAUACCAGCAUCGUCUUGAUGCCCUUGGAAGUCCGGUCUGAUGAGUCCGACUGGGACGAAACAGC | 0.5397 ± 0.0016 | 1.98 ± 0.076 | 1.804 ± 0.0069 | 0.61 ± 0.081
15 | GCUGUCACCGGAAUACCAGCAUCGUCUUGAUGCCCUUGGAAGUCCGGUCUGAUGAGUCCGAAUAGGACGAAACAGC | 1.08 ± 0.19 | 1.85 ± 0.068 | 1.627 ± 0.0033 | 0.942 ± 0.085
16 | GCUGUCACCGGAAUACCAGCAUCGUCUUGAUGCCCUUGGAAGUCCGGUCUGAUGAGUCCUUAAUGGACGAAACAGC | 1.13 ± 0.062 | 1.9977 ± 0.0018 | 1.956 ± 0.013 | 1.07 ± 0.036
17 | GCUGUCACCGGAAUACCAGCAUCGUCUUGAUGCCCUUGGAAGUCCGGUCUGAUGAGUCCCAUCCGGACGAAACAGC | 0.98 ± 0.04 | 2.04 ± 0.045 | 2 ± 0.12 | 1.162 ± 0.0037
18 | GCUGUCACCGGAAUACCAGCAUCGUCUUGAUGCCCUUGGAAGUCCGGUCUGAUGAGUCCACACAGGACGAAACAGC | 0.454 ± 0.049 | 1.94 ± 0.051 | 1.77 ± 0.036 | 0.653 ± 0.055
